The assay concerns the target BRCA1 protein (mouse) (mouse) (UniProt P48754). Nature of the assay: cell-based or functional assay.
Chain of UniProt P48754 (P48754 whole entry): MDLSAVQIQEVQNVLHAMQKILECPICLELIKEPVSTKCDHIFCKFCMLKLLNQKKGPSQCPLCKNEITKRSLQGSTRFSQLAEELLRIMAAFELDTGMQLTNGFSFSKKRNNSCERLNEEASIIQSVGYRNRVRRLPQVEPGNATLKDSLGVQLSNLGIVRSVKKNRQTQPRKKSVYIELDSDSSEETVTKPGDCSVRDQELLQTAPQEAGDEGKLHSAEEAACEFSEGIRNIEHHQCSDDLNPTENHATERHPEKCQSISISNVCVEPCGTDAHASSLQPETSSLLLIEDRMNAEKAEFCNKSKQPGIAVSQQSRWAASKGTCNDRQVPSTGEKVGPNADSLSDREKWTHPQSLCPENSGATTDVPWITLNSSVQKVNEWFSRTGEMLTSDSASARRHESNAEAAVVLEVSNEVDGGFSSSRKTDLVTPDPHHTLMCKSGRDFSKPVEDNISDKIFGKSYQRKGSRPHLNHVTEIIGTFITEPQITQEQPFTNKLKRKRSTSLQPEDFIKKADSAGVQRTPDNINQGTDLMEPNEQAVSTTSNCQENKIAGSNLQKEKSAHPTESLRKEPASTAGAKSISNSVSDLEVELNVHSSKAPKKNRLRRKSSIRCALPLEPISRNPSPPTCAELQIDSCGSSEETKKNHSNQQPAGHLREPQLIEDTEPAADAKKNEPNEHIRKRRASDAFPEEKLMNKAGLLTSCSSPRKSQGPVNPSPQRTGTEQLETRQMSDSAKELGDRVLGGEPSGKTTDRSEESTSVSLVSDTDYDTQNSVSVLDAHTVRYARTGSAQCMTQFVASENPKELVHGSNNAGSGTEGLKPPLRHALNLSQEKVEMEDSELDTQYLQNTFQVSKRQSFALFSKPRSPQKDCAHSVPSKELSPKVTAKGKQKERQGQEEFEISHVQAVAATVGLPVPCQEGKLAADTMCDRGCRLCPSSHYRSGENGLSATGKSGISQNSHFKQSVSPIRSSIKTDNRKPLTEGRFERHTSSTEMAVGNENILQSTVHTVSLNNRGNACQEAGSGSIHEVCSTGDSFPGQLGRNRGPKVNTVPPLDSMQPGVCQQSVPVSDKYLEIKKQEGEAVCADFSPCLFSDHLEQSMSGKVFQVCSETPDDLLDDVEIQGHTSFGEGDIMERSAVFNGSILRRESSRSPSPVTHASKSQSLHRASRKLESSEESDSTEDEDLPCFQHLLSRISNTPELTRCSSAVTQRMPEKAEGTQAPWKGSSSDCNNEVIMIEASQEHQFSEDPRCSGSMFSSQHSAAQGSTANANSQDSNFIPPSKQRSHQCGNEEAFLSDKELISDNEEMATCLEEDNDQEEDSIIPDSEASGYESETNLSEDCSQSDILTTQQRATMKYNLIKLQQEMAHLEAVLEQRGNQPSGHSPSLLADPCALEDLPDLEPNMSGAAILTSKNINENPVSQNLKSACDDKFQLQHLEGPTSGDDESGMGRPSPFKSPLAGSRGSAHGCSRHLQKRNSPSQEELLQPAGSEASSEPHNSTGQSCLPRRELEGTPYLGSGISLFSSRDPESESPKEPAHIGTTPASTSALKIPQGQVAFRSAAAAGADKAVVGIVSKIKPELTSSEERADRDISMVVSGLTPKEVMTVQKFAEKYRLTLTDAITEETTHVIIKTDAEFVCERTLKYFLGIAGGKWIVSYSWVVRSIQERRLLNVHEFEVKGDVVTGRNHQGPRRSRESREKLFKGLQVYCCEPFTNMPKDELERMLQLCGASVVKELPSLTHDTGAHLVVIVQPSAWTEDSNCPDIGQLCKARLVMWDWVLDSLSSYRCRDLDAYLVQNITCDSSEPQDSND

In turn, “FANCD2 protein (mouse) (from UniProt Q80V62 1-1450)” returned a co-localization of anti-FANCD2 foci with anti-BRCA1 staining (20 pachytene nuclei) of 65%.

Source of the values: patent US20110257036A1.
